Source: PMC10147646

Key:
[1] = target: JellyOp (opsin-based pigment from the box jellyfish Carybdea rastonii) (Carybdea rastonii)
[2] = target: JellyOp (opsin-based pigment from the box jellyfish Carybdea rastonii) (Carybdea rastonii); remark: listed apart in the source
[3] = target: JellyOp(K72T) (Carybdea rastonii)

Sequence of JellyOp (opsin-based pigment from the box jellyfish Carybdea rastonii) (Carybdea rastonii) (B6F0Y5 entry or part of it): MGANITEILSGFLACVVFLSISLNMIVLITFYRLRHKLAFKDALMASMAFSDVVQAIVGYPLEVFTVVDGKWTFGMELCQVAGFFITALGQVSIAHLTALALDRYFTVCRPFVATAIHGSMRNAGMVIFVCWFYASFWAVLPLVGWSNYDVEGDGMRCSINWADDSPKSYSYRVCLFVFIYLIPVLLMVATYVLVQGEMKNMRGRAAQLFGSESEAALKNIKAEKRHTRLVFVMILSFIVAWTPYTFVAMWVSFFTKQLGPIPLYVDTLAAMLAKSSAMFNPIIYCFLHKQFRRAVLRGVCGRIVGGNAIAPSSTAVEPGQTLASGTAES

time constant of onset (TauON) of the light-triggered GIRK current in cells expressing JellyOp [1]: 34 ms
time constant of inactivation (TauOFF) of the JellyOp GIRK response by high-intensity violet light (405 nm) [2]: 252 ms
fast time constant of GIRK current inactivation by violet light (double-exponential decay) [3]: 281 ms
slow time constant of GIRK current inactivation by violet light (double-exponential decay) [3]: 8.4 s
Substance: Gαs (from UniProt P63092 1-394) (natural protein)
